Experimental data as given in publication PMC4933246, “Alanine Expansions Associated with Congenital Central Hypoventilation Syndrome Impair PHOX2B Homeodomain-mediated Dimerization and Nuclear Import*” (The Journal of Biological Chemistry, 2016).

Target: the molecule itself
Assay: two-hybrid; mammalian two-hybrid (CheckMate, Promega) in HeLa cells; GAL4 BD fusion (pBIND) and VP16 AD fusion (pACT), 80 fmol each, with 160 fmol pG5LUC; Dual-Luciferase assay

B1: PHOX2A fused to GAL4 BD or VP16 AD (natural protein)
chain: not shown
notes: PHOX2A, human; Each copy carries either GAL4 BD or VP16 AD; also called GAL4 BD-PHOX2A; VP16 AD-PHOX2A; source: mammalian two-hybrid fusion, transfected HeLa cells
With B1 as the protein, how does the “luciferase activity relative to that of the PHOX2B fusion constructs” value read?
The value was over 2 fold.
